{"source": "paper PMC11742450", "about": "“Engineering a membrane protein chaperone to ameliorate the proteotoxicity of mutant huntingtin” (Nature Communications, 2025)", "binders": {"B1": {"name": "2 × Strep-SUMO-PEX26 (237-305aa) (domain or fragment, UniProt Q7Z412 237-305, looked up)", "chain": "RQLWDSAVSHFFSLPFKKSLLAALILCLLVVRFDPASPSSLHFLYKLAQLFRWIRKAAFSRLYQLRIRD"}}, "biological_target": "T1, His6-hsPEX19-WT (human, UniProt P40855 1-299)", "T1 construct": "human PEX19 (hsPEX19); the human PEX19 gene cloned into pET-33b; Made in E. coli, so probably not farnesylated (surmise); also called human PEX19; His6-PEX19; source: E. coli BL21 Star (DE3), purified (Ni-NTA)", "T1 sequence (looked up)": "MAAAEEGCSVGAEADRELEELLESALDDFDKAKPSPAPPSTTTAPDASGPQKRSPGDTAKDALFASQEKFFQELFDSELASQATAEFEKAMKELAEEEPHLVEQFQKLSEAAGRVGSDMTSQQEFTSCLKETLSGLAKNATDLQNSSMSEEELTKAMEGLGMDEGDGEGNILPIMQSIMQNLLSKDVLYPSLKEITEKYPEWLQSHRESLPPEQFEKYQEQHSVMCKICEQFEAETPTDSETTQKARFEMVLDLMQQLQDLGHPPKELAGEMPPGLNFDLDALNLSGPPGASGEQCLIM", "assay": "pull-down; His6-PEX19 pulldown with PEX26; input, flowthrough and elution analysed by Western blot with Strep (PEX26) and PEX19 antibodies; hsPEX19 at about 3-fold the endogenous concentration", "conditions": "both partners purified"}
{"binder": "B1", "values": [{"measurement": "binding result", "value": "binds"}]}
